Reference: US20070202079A1, “Therapeutic compositions and methods useful in modulating protein tyrosine phosphatases” (priority 2006, published 2007)
Substitutions are numbered along the chain they refer to.

Columns and labels:
[1] = target: T1, PRL-3 (Homo sapiens, UniProt O75365); assay: in vitro PTPase assay, recombinant PRL-3; assay type: biochemical; conditions: DiFMUP substrate
T1 construct: cDNAs of human PRL-1, PRL-2 and PRL-3 coding region were derived by RT-PCR; made in house; host or cells: DH5a bacteria (E. coli)
T1 sequence (O75365 whole entry): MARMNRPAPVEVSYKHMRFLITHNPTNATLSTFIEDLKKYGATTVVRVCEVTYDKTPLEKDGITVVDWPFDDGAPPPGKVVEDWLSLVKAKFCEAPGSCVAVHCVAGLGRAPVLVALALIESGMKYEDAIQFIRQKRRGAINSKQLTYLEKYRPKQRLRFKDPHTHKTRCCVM
Source text: Sodium stibogluconate, suramin, sodium orthovanadate and GST fusion protein of SHP-1 have been described previously (Pathak et al., J. Immunol. 167, 3391 (2001)). Meglumine antimonate was obtained from Aventis. cDNAs of human PRL-1, PRL-2 and PRL-3 coding region were derived by RT-PCR from H9 cells (Safai, et al., Lancet 1, 1438 (1984)) and inserted in frame into the pGEX vector. cDNA of PRL-1R86 was generated by recombinant DNA technique using PRL-1 cDNA as template following established procedures (Jiao, et al., Mol. Cell. Biol. 16, 6985 (1996)). GST fusion proteins of the PRL phosphatases were prepared from DH5a bacteria transformed with the pGEX fusion protein constructs as described previously (Yi, et al., Mol. Cell. Biol. 12, 836 (1992)). cDNAs encoding the PRLs tagged at the N-termini with the Flag epitope (Castrucci, et al., J. Virol. 66, 4647 (1992)) were generated via recombinant DNA technique, sequenced to confirm their identities and cloned into the pBabepuro vector (Yang, et al., Blood 91, 3746 (1998)). Anti-Flag monoclonal antibody (M2, Sigma) was purchased from a commercial source. A synthetic phosphotyrosine peptide (Arg-Arg-Leu-Ile-Glu-Asp-Ala-Gle-Tyr-Al- -a-Ala-Arg-Gly (SEQ ID NO: 3), wherein the tyrosine is phosphorylated; UBI) and DiFMUP (6, 8-difluoro-4-methylumbelliferyl phosphate, Molecular Probes) were purchased as substrates for PTPase assays.
(§1) In vitro PTPase assays were used to determine the effects of compounds on recombinant PTPases, following established procedures using a synthetic phosphotyrosine peptide or DiFMUP as the substrate (Pathak et al., J. Immunol. 167, 3391 (2001)). Briefly, individual PTPases (0.1 μg/reaction) in 50 μL of PTPase buffer (50 mM Tris, pH 7.4) were incubated at 22° C. for 10 minutes or as indicated in the absence or presence of inhibitory compounds. Substrates (0.2 mM phosphotyrosine peptide) were then added and allowed to react at 22° C. for 18 hrs. PTPase activity of individual reactions was measured by adding 100 μL of malachite green solution (UBI) and then quantifying the amounts of free phosphate cleaved by the PTPase from the peptide substrate by spectrometry (OD660 nm). PTPase assays using DiFMUP as a substrate were conducted following a previously described procedure (Matter, et al., Biochem. Biophys. Res. Comm. 283, 1061 (2001)). Relative PTPase activities were calculated based on the formula: (PTPase activity in the presence of an inhibitory compound/PTPase activity in the absence of the compound)× 100%. To assess the reversibility of PTPase inhibition, GST fusion proteins of the PTPases bound on glutathione beads (Pharmacia) were pre-incubated with cold Tris buffer (50 mM Tris, pH 7.0) or Tris buffer containing the inhibitor at 4° C. for 30 minutes. The beads were then washed three times in cold Tris buffer or not washed prior to subjecting to in vitro PTPase assays.

[2] = target: T2, SHP-1 (Mus musculus, UniProt P29351); assay: in vitro PTPase assay, GST/SHP-1; assay type: biochemical
T2 construct: made in house
T2 sequence (P29351 whole entry): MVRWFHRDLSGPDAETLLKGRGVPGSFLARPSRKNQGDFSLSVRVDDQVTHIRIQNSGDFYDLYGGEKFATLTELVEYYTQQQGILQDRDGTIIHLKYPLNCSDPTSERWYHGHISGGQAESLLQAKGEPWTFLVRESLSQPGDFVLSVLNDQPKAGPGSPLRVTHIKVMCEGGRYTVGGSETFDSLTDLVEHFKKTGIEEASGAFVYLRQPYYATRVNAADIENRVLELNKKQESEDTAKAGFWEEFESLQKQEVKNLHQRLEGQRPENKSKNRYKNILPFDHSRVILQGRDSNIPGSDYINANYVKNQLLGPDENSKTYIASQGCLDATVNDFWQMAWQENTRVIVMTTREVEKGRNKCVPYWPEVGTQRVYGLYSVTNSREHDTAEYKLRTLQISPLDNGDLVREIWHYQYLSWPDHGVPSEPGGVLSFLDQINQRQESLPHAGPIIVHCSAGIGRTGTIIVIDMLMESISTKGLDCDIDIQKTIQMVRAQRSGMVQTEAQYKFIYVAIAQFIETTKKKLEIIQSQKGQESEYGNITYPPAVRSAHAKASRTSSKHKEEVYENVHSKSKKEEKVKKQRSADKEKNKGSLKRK
Procedure: In vitro PTPase activities were measured using the commercial protein tyrosine phosphatase assay kit (Upstate Biotechnology, Inc. (“UBI”)) following established procedure known to one of skill in the art. […] Briefly, 0.01 μg of GST/PTPase fusion proteins was incubated in 50 μl of Tris buffer (10 mM Tris, pH 7.4) containing different concentrations of inhibitors or chemicals (0-1,000 μg/ml) at 22° C. for 10 minutes, followed by addition of 0.2 mM of the phosphotyrosine peptide and incubation at 22° […] 100 μl of Malachite Green solution was added and incubated for 5 minutes, and the absorbance at 660 nm was measured after 5 minutes.
To assess the reversibility of inhibition of SHP-1 by PTPase inhibitors, GST/SHP-1 fusion protein bound on glutathione beads were pre-incubated in cold Tris buffer or Tris buffer containing the PTPase inhibitors at 4° C. for 30 minutes. The beads were then either subjected to in vitro PTPase assays or washed 3 times in Tris buffer then subjected to in vitro PTPase assays.
as §1, with “Briefly,” for “In vitro PTPase assays were used to determine the effects of compounds on recombinant PTPases, following established procedures using a synthetic phosphotyrosine peptide or DiFMUP as the substrate (Pathak et al., J. Immunol. 167, 3391 (2001)). Briefly,”, “PTPase assays using DiFMUP as a substrate were conducted following a previously described procedure (Matter, et al., Biochem. Biophys. Res. Comm. 283, 1061 (2001)).” left out

[3] = test system: GSTm8; assay: in vitro PTPase assay, GSTm8; assay type: biochemical; conditions: 3-4 μg/ml or 10-100 μg/ml
Source text: (§2) In vitro PTPase assays were used to determine the effects of levamisole (Sigma), pentamidine (American Pharmaceutical Partners, Inc.), and ketoconazole (Sigma) on recombinant PTPases, following established procedures (Pathak et al., J. Immunol. 167, 3391 (2001); Pathak et al., Leukemia 16, 2285 (2002), Yi et al., J. Immunol. 169, 5978 (2002)) using a synthetic phosphotyrosine peptide or DiFMUP as the substrate as detailed above in section I.A.2.

[4] = target: T3, MKP1 (Homo sapiens, UniProt P28562); assay: in vitro PTPase assay, GST/MKP1; assay type: biochemical; conditions: levamisole, pentamidine, ketoconazole
T3 construct: a pGEX construct containing the coding region of MKP1 cDNA derived by RT-PCR; made in house; host or cells: DH5a bacteria (E. coli)
T3 sequence (P28562 1-367): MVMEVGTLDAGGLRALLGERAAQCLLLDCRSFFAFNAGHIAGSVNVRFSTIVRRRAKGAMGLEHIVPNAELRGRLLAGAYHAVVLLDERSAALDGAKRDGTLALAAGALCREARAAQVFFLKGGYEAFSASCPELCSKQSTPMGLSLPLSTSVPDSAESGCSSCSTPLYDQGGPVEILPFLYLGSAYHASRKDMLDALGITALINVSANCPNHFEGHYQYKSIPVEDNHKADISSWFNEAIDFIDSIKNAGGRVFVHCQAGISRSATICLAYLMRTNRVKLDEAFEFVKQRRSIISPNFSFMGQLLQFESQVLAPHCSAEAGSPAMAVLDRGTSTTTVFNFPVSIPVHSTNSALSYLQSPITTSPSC
Procedure: In vitro PTPase activities were measured using the commercial protein tyrosine phosphatase assay kit (Upstate Biotechnology, Inc. (“UBI”)) following established procedure known to one of skill in the art. This assay measures the in vitro dephosphorylation of a synthetic phosphotyrosine peptide of the sequence Arg-Arg-Leu-Ile-Glu-Asp-Ala-Gle-T- -yr-Ala-Ala-Arg-Gly, wherein the tyrosine is phosphorylated (SEQ ID NO: 3). Briefly, 0.01 μg of GST/PTPase fusion proteins was incubated in 50 μl of Tris buffer (10 mM Tris, pH 7.4) containing different concentrations of inhibitors or chemicals (0-1,000 μg/ml) at 22° C. for 10 minutes, followed by addition of 0.2 mM of the phosphotyrosine peptide and incubation at 22° C. for 18 hours. 100 μl of Malachite Green solution was added and incubated for 5 minutes, and the absorbance at 660 nm was measured after 5 minutes.
as §2

[5] = test system: T4, Synthetic phosphotyrosine peptide Arg-Arg-Leu-Ile-Glu-Asp-Ala-Gle-Tyr-Ala-Ala-Arg-Gly (SEQ ID NO: 3), tyrosine phosphorylated
T4 sequence: RRLIEDAEYAARG

[6] = target: T5, Synthetic phosphotyrosine peptide Arg-Arg-Leu-Ile-Glu-Asp-Ala-Gle-Tyr-Ala-Ala-Arg-Gly (SEQ ID NO: 3), tyrosine phosphorylated (not fully specified)
T5 chain: RRLIEDAEYAARG

Cc1ccc(C(=O)Nc2ccc(S(=O)(=O)O)c3cc(S(=O)(=O)O)cc(S(=O)(=O)O)c23)cc1NC(=O)c1cccc(NC(=O)Nc2cccc(C(=O)Nc3cc(C(=O)Nc4ccc(S(=O)(=O)O)c5cc(S(=O)(=O)O)cc(S(=O)(=O)O)c45)ccc3C)c2)c1 [Suramin]
inhibition of PRL-3 compared with sodium stibogluconate [1]: less effective | inhibition of SHP-1 compared with sodium stibogluconate ([2]; comparable conditions): less effective | inhibition of GST/SHP-1 after washing (reversibility) ([2]; pre-incubated 30 min at 4 °C, beads washed 3 times): almost completely removed by the washing process

c1ccc([C@H]2CN3CCSC3=N2)cc1 [levamisole]
inhibitory activity against GSTm8 [3]: no obvious inhibitory activity | inhibition of MKP1 [4]: substantial inhibition | inhibitory activity against SHP-1 ([2]; 3-4 μg/ml or 10-100 μg/ml): no obvious inhibitory activity

[Na+].[Na+].[Na+].[O]=[V]([O-])([O-])[O-] [sodium orthovanadate]
inhibition of PRL-3 compared with sodium stibogluconate [1]: less effective

GST fusion protein of SHP-1
PTPase activities against the peptide substrate (660 nm absorbance above background) [5]: 660 nm absorbance approximately 0.6 above background (0.03)

GST fusion protein of SHP-2
PTPase activities against the peptide substrate (660 nm absorbance above background) [5]: 660 nm absorbance approximately 0.6 above background (0.03)

GST fusion protein of mitogen-activated protein kinase phosphatase 1 (MKP1)
PTPase activities against the peptide substrate (660 nm absorbance above background) [5]: 660 nm absorbance approximately 0.6 above background (0.03)

GST fusion protein of protein tyrosine phosphatase 1B (PTP1B)
PTPase activities against the peptide substrate (660 nm absorbance above background) [5]: 660 nm absorbance approximately 0.6 above background (0.03)

B1: GST fusion protein of PRL-1R86 (recombinant PRL-1 protein containing R86) (protein)
chain: MARMNRPAPVEVTYKNMRFLITHNPTNATLNKFIEELKKYGVTTIVRVCEATYDTTLVEKEGIHVLDWPFDDGAPPSNQIVDDWLRLVKIKFREEPGCCIAVHCVAGLGRAPVLVALALIEGGMKYEDAVQFIRQKRRGAFNSKQLLYLEKYRPKMRLRFKDSNGHRNNCCIQ
in vitro PTPase activity [6]: showed in vitro PTPase activity similar to that of wild type PRL-1

B2: Flag-PRL-1 (human PRL-1 tagged at the N-terminus with the Flag epitope) (protein)
chain: B1 chain with R86S
PTPase activity of anti-Flag immunocomplexes [6]: a markedly higher PTPase activity (about 23 folds) over that of control transfectants | phosphatase activities of anti-Flag immunocomplexes [6]: showed phosphatase activities well above the background activity of the vector control cells

B3: Flag-PRL-1R86 (Flag-tagged PRL-1 R86 mutant) (protein)
chain: B1 chain
phosphatase activities of anti-Flag immunocomplexes [6]: showed phosphatase activities well above the background activity of the vector control cells

B4: GST fusion protein of PRL-1 (recombinant wild type PRL-1) (protein)
chain: B1 chain with R86S
in vitro PTPase activity [6]: showed in vitro PTPase activity similar to that of wild type PRL-1
